The values below come from patent US20190194683A1 (WISCONSIN ALUMNI RESEARCH FOUNDATION, published 2019).

In experiment [1] the target is T1, α-SNAPRhg1LC1-279 (α-SNAPRhg1LC lacking the final 10 C-terminal residues) (Glycine max (soybean)).
T1 construct: both say that the final 10 C-terminal residues are missing; also called α-SNAPRhg1LC1-280
T1 chain: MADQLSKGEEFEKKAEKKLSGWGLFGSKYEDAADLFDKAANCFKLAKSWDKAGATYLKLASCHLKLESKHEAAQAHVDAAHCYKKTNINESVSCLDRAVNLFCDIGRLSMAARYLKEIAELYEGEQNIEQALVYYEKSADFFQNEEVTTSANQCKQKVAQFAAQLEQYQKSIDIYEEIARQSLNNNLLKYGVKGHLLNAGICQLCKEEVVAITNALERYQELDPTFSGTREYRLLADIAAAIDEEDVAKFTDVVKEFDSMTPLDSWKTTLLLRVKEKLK
In words: in vitro binding.

For experiment [2], the target named is T2, α-SNAPRhg1WT1-279 (WT α-SNAP lacking the final 10 C-terminal residues) (Glycine max (soybean)).
T2 construct: also called α-SNAP lacking the C-terminus
T2 chain: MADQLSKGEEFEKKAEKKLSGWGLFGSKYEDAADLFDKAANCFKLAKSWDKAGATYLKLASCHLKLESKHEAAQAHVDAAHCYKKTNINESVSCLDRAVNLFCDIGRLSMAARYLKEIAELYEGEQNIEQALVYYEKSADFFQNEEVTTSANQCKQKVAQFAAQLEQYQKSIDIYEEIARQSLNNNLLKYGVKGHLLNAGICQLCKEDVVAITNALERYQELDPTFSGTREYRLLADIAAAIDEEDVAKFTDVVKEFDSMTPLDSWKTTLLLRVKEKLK
Put plainly: in vitro binding of recombinant NSF to tube-adsorbed α-SNAP, silver-stained SDS-PAGE. As to the method:
To verify that NSFRAN07/α-SNAP binding is dependent upon NSF-binding patches at the α-SNAP C-terminus, NSFRAN07 binding to an otherwise WT α-SNAP lacking the final 10 C-terminal residues (α-SNAPRhg1WT₁₋₂₇₉) was determined. Binding of NSFCh07WT or NSFRAN07 binding with α-SNAP Rhg1WT₁₋₂₇₉ was disrupted, similar to the no α-SNAP binding controls (FIG. 10C).
(§1) In vitro NSF binding assays were performed essentially as described in Barnard et. al. (1997) J Cell Biol 139(4): 875-883; and Bayless et al. (2016), Proc Natl Acad Sci USA 113(47): E7375-E7382; Briefly, 20 μg of each respective recombinant α-SNAP protein was added to the bottom of a 1.5-mL polypropylene tube and incubated at 25° C. for 20 min. Unbound α-SNAP proteins were then washed by adding α-SNAP wash buffer [25 mM Tris, pH 7.4, 50 mM KCl, 1 mM DTT, 0.4 mg/mL bovine serum albumin (BSA)]. After removal of wash buffer, 20 μg of recombinant NSF (1 μg/μL in NSF binding buffer), was then immediately added and incubated on ice for 10 min. The solution was then removed, and samples were immediately washed 2× with NBB to remove any unbound NSF. Samples were then boiled in 1×SDS loading buffer and separated on a 10% Bis-Tris SDS-PAGE, and silver-stained using the ProteoSilver Kit (Sigma-Aldrich), according to the manufacturer directions. The percentage of NSF bound by α-SNAP was then calculated using densitometric analysis with ImageJ.

The target in experiment [3] is T3, α-SNAPRhg1WT (wild-type α-SNAP encoded by Glyma.18G022500, Williams 82) (Glycine max (soybean)).
T3 construct: also called WT α-SNAP; wild-type (WT) Rhg1 α-SNAP
T3 chain: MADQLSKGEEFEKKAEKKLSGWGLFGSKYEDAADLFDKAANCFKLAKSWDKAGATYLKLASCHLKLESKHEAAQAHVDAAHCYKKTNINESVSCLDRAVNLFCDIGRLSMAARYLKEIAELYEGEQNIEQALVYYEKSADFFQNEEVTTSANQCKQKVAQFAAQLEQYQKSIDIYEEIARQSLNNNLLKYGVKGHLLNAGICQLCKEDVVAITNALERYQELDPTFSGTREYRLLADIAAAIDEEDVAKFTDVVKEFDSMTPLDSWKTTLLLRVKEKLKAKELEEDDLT
Put plainly: in vitro binding: α-SNAP adsorbed to tube, recombinant NSF added, bound NSF on silver-stained SDS-PAGE, ImageJ densitometry.
Excerpt: (§2) All Rhg1-containing HG type test and NAM lines contained NSFRAN07, and α-SNAPRhg1HC and α-SNAPRhg1LC are polymorphic at C-terminal residues that bind and stimulate NSF. Therefore, the impact of NSFRAN07 polymorphisms on binding to both Rhg1 resistance-type α-SNAPs and α-SNAPRhg1WT was investigated. Recombinant NSFRAN07, NSFCh07 and Rhg1 α-SNAP proteins were produced for in vitro binding studies as previously described in (Barnard et al., 1997, J Cell Biol 139, 875-883; (Bayless et al. 2016, Proc. Natl. Acad. Sci. USA 113, E7375-E7382). NSFRAN07 and NSFCh07 binding was quantified using ImageJ densitometry across three independent experiments (FIG. 3D). NSFCh07 binding to α-SNAPRhg1HC and α-SNAPRhg1LC was reduced compared to α-SNAPRhg1WT (FIG. 3C). In contrast, NSFRAN07 binding to α-SNAPRhg1HC or α-SNAPRhg1LC was similar to α-SNAPRhg1WT binding, and was increased ˜30% relative to NSFCh07.
as §1

Experiment [4] addresses T4, α-SNAPRhg1HC (high copy Rhg1 resistance-type α-SNAP, Glyma.18G022500 Fayette) (Glycine max (soybean)).
T4 construct: Recombinant protein, His-SUMO tag cleaved off; also called high copy (HC) Rhg1 α-SNAP
T4 chain: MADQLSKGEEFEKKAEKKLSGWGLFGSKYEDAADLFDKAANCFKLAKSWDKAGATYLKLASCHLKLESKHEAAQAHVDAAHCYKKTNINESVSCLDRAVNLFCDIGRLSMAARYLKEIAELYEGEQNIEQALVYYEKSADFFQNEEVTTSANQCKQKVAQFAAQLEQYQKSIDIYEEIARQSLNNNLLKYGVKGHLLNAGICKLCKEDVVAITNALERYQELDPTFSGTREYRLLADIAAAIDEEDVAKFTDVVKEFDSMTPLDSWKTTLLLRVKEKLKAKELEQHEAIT
Described as above.
Excerpt: as §2, §1

Experiment [5] concerns the target T5, α-SNAPRhg1LC (low copy Rhg1 resistance-type α-SNAP, Glyma.18G022500 Peking) (Glycine max (soybean)).
T5 construct: Recombinant protein, His-SUMO tag cleaved off; also called low-copy (LC) Rhg1 α-SNAP
T5 chain: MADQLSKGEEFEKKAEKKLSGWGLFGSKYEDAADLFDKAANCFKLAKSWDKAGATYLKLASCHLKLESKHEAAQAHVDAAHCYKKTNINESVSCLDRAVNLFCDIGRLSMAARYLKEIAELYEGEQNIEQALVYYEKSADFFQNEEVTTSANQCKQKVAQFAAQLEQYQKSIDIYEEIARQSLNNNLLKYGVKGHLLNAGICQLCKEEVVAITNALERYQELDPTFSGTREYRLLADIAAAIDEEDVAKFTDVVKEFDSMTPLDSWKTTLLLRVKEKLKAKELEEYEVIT
Described as above.
Excerpt: as §2, §1

For experiment [6], the target named is T4, α-SNAPRhg1HC (high copy Rhg1 …). Put plainly: in vitro binding, densitometry of silver-stained SDS-PAGE across three independent experiments; reference NSFCh07 on the same α-SNAP.
Excerpt: as §2
(§3) In vitro NSF binding assays were performed essentially as described in Barnard et. al. (1997) J Cell Biol 139(4): 875-883; and Bayless et al. (2016), Proc Natl Acad Sci USA 113(47): E7375-E7382; Briefly, 20 μg of each respective recombinant α-SNAP protein was added to the bottom of a 1.5-mL polypropylene tube and incubated at 25° C. for 20 min. […] The percentage of NSF bound by α-SNAP was then calculated using densitometric analysis with ImageJ.

The target of experiment [7] is T5, α-SNAPRhg1LC (low copy Rhg1 …). The description is as above.
Excerpt: as §2, §3

B1: NSFCh07 (wild-type NSF encoded by Glyma.07G195900, soybean reference genome Williams 82) (enzyme)
chain: MASRFGLSSSSSSASSMRVTNTPASDLALTNLAFCSPSDLRNFAVPGHNNLYLAAVADSFVLSLSAHDTIGSGQIALNAVQRRCAKVSSGDSVQVSRFVPPEDFNLALLTLELEFVKKGSKSEQIDAVLLAKQLRKRFMNQVMTVGQKVLFEYHGNNYSFTVSNAAVEGQEKSNSLERGMISDDTYIVFETSRDSGIKIVNQREGATSNIFKQKEFNLQSLGIGGLSAEFADIFRRAFASRVFPPHVTSKLGIKHVKGMLLYGPPGTGKTLMARQIGKILNGKEPKIVNGPEVLSKFVGETEKNVRDLFADAEQDQRTRGDESDLHVIIFDEIDAICKSRGSTRDGTGVHDSIVNQLLTKIDGVESLNNVLLIGMTNRKDMLDEALLRPGRLEVQVEISLPDENGRLQILQIHTNKMKENSFLAADVNLQELAARTKNYSGAELEGVVKSAVSYALNRQLSLEDLTKPVEEENIKVTMDDFLNALHEVTSAFGASTDDLERCRLHGMVECGDRHKHIYQRAMLLVEQVKVSKGSPLVTCLLEGSRGSGKTALSATVGIDSDFPYVKIVSAESMIGLHESTKCAQIIKVFEDAYKSPLSVIILDDIERLLEYVPIGPRFSNLISQTLLVLLKRLPPKGKKLMVIGTTSELDFLESIGFCDTFSVTYHIPTLNTTDAKKVLEQLNVFTDEDIDSAAEALNDMPIRKLYMLIEMAAQGEHGGSAEAIFSGKEKISIAHFYDCLQDVVRL
notes: Recombinant protein from E. coli; also called NSFCh07WT; NSF-WT
With B1, the binding result is “no binding” in experiment [1]; “no binding (tested: 20 µg NSF (1 µg/µL))” in experiment [2]; “binds” in experiment [3]; “binds” in experiment [4]; “binds” in experiment [5].

B2: NSFRAN07 (Rhg1-associated NSF from chromosome 07, allele of Glyma.07G195900) (enzyme)
chain: MASQFGLSSSSSSASSMRVTYTPANDLALTNLAFCSPSDLRNFAVPGHNNLYLAAVADSFVLSLSAHDTIGSGQIALNAVQRRCAKVSSGDSVQVSRFVPPEDFNLALLTLELEFFVKKGSKSEQIDAVLLAKQLRKRFMNQVMTVGQKVLFEYHGNNYSFTVSNAAVEGQEKSNSLERGIISDDTYIVFETSRDSGIKIVNQREGATSNIFKQKEFNLQSLGIGGLSAEFADIFRRAFASRVFPPHVTSKLGIKHVKGMLLYGPPGTGKTLMARQIGKILNGKEPKIVNGPEVLSKFVGETEKNVRDLFADAEQDQRTRGDESDLHVIIFDEIDAICKSRGSTRDGTGVHDSIVNQLLTKIDGVESLNNVLLIGMTNRKDMLDEALLRPGRLEVQVEISLPDENGRLQILQIHTNKMKENSFLAADVNLQELAARTKNYSGAELEGVVKSAVSYALNRQLSLEDLTKPVEEENIKVTMDDFLNALHEVTSAFGASTDDLERCRLHGMVECGDRHKHIYQRAMLLVEQVKVSKGSPLVTCLLEGSRGSGKTALSATVGIDSDFPYVKIVSAESMIGLHESTKCAQIIKVFEDAYKSPLSVIILDDIERLLEYVPIGPRFSNLISQTLLVLLKRLPPKGKKLMVIGTTSELDFLESIGFCDTFSVTYHIPTLNTTDAKKVLEQLNVFTDEDIDSAAEALNDMPIRKLYMLIEMAAQGEHGGSAEAIFSGKEKISIAHFYDCLQDVVRL
notes: Recombinant protein from E. coli, ORF cloned from Forrest (Rhg1LC) cDNA; Differs from NSFCh07 by R4Q, N21Y, S25N, insertion 116F and M181I; also called Glyma.07G195900 RAN07
In the case of B2, the binding result in experiment [1] was “no binding”; in experiment [2], “no binding (tested: 20 µg NSF (1 µg/µL))”; in experiment [3], “binds”. Besides, the “increase of binding relative to NSFCh07” value in experiment [6] and in experiment [7] was approximately 30% throughout.
